{
  "source": "paper PMC8492067",
  "about": "(eLife, 2021)",
  "key": {"NrnCBh": {"target": "T1, NrnCBh (Bartonella henselae, UniProt A0A0R4J6U7)", "T1 construct": "gene rnd1", "test": "DraCALA nitrocellulose spot binding, radiolabelled ligand"}, "NrnCBh (nano-RNase C) [1]": {"target": "T2, NrnCBh (nano-RNase C) (Bartonella henselae, UniProt A0A0R4J6U7 1-206)", "T2 sequence": "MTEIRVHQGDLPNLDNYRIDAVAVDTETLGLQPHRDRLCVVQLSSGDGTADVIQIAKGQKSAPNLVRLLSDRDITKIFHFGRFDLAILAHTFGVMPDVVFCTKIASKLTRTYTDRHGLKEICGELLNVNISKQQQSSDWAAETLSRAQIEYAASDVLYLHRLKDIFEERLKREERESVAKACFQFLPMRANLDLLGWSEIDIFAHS", "test": "cryo-EM; only 3' dinucleotide resolved; DraCALA: 10 mM Tris-HCl pH 8, 100 mM NaCl, 5 mM CaCl2; temperature not stated", "conditions": "protein: recombinant; tags: tag-less (His6-SUMO removed by Ulp-1); chain copies: 8"}, "crystal structure": {"target": "the molecule itself", "test": "crystal structure"}, "SEC-MALS": {"target": "the molecule itself", "test": "SEC-MALS"}, "NrnCBh (nano-RNase C) [2]": {"target": "T2, NrnCBh (nano-RNase C)", "test": "DraCALA (nitrocellulose); DraCALA: 10 mM Tris-HCl pH 8, 100 mM NaCl, 5 mM CaCl2; temperature not stated", "conditions": "protein: recombinant; tags: tag-less (His6-SUMO removed by Ulp-1); chain copies: 8"}, "NrnCBh (nano-RNase C) [3]": {"target": "T2, NrnCBh (nano-RNase C)", "test": "cryo-EM; DraCALA: 10 mM Tris-HCl pH 8, 100 mM NaCl, 5 mM CaCl2; temperature not stated", "conditions": "protein: recombinant; tags: tag-less (His6-SUMO removed by Ulp-1); chain copies: 8"}},
  "data": [
    {"molecule": "Nc1nc2c(ncn2[C@@H]2O[C@H](COP(=O)(O)O[C@H]3[C@@H](O)[C@H](n4cnc5c(=O)[nH]c(N)nc54)O[C@@H]3COP(=O)(O)O)[C@@H](O)[C@H]2O)c(=O)[nH]1", "note": "[pGG]", "values": [
      {"measurement": "Kd", "setting": "NrnCBh", "result": 17.7, "unit": "nM"}
    ]},
    {"molecule": "Nc1nc2c(ncn2[C@@H]2O[C@H](COP(=O)(O)O[C@H]3[C@@H](O)[C@H](n4cnc5c(=O)[nH]c(N)nc54)O[C@@H]3COP(=O)(O)O[C@H]3[C@@H](O)[C@H](n4cnc5c(N)ncnc54)O[C@@H]3COP(=O)(O)O)[C@@H](O)[C@H]2O)c(=O)[nH]1", "note": "[pAGG]", "values": [
      {"measurement": "Kd", "setting": "NrnCBh", "result": 3490, "unit": "nM"}
    ]},
    {"molecule": "AGG (ssRNA, 5' phosphate)", "note": "[pAGG]", "values": [
      {"measurement": "binding result", "setting": "NrnCBh (nano-RNase C) [1]", "result": "binds"}
    ]},
    {"molecule": "Bartonella henselae nano-RNase C (NrnC), wild type (enzyme, also called NrnCBh; wild-type NrnCBh) MTEIRVHQGDLPNLDNYRIDAVAVDTETLGLQPHRDRLCVVQLSSGDGTADVIQIAKGQKSAPNLVRLLSDRDITKIFHFGRFDLAILAHTFGVMPDVVFCTKIASKLTRTYTDRHGLKEICGELLNVNISKQQQSSDWAAETLSRAQIEYAASDVLYLHRLKDIFEERLKREERESVAKACFQFLPMRANLDLLGWSEIDIFAHS", "values": [
      {"measurement": "stoichiometry N", "setting": "crystal structure", "result": 8}
    ]},
    {"molecule": "Bartonella henselae NrnC L31A (enzyme, L-wedge mutant) MTEIRVHQGDLPNLDNYRIDAVAVDTETLGAQPHRDRLCVVQLSSGDGTADVIQIAKGQKSAPNLVRLLSDRDITKIFHFGRFDLAILAHTFGVMPDVVFCTKIASKLTRTYTDRHGLKEICGELLNVNISKQQQSSDWAAETLSRAQIEYAASDVLYLHRLKDIFEERLKREERESVAKACFQFLPMRANLDLLGWSEIDIFAHS", "values": [
      {"measurement": "stoichiometry N", "setting": "SEC-MALS", "result": 8}
    ]},
    {"molecule": "Bartonella henselae NrnC D25A (enzyme) MTEIRVHQGDLPNLDNYRIDAVAVATETLGLQPHRDRLCVVQLSSGDGTADVIQIAKGQKSAPNLVRLLSDRDITKIFHFGRFDLAILAHTFGVMPDVVFCTKIASKLTRTYTDRHGLKEICGELLNVNISKQQQSSDWAAETLSRAQIEYAASDVLYLHRLKDIFEERLKREERESVAKACFQFLPMRANLDLLGWSEIDIFAHS", "values": [
      {"measurement": "stoichiometry N", "setting": "SEC-MALS", "result": 8}
    ]},
    {"molecule": "Bartonella henselae NrnC H205A (enzyme) MTEIRVHQGDLPNLDNYRIDAVAVDTETLGLQPHRDRLCVVQLSSGDGTADVIQIAKGQKSAPNLVRLLSDRDITKIFHFGRFDLAILAHTFGVMPDVVFCTKIASKLTRTYTDRHGLKEICGELLNVNISKQQQSSDWAAETLSRAQIEYAASDVLYLHRLKDIFEERLKREERESVAKACFQFLPMRANLDLLGWSEIDIFAAS", "values": [
      {"measurement": "stoichiometry N", "setting": "SEC-MALS", "result": 8}
    ]},
    {"molecule": "Bartonella henselae NrnC H79A (enzyme, Phosphate cap mutant) MTEIRVHQGDLPNLDNYRIDAVAVDTETLGLQPHRDRLCVVQLSSGDGTADVIQIAKGQKSAPNLVRLLSDRDITKIFAFGRFDLAILAHTFGVMPDVVFCTKIASKLTRTYTDRHGLKEICGELLNVNISKQQQSSDWAAETLSRAQIEYAASDVLYLHRLKDIFEERLKREERESVAKACFQFLPMRANLDLLGWSEIDIFAHS", "values": [
      {"measurement": "stoichiometry N", "setting": "SEC-MALS", "result": 8}
    ]},
    {"molecule": "Bartonella henselae NrnC K103A (enzyme, Phosphate cap mutant) MTEIRVHQGDLPNLDNYRIDAVAVDTETLGLQPHRDRLCVVQLSSGDGTADVIQIAKGQKSAPNLVRLLSDRDITKIFHFGRFDLAILAHTFGVMPDVVFCTAIASKLTRTYTDRHGLKEICGELLNVNISKQQQSSDWAAETLSRAQIEYAASDVLYLHRLKDIFEERLKREERESVAKACFQFLPMRANLDLLGWSEIDIFAHS", "values": [
      {"measurement": "stoichiometry N", "setting": "SEC-MALS", "result": 8}
    ]},
    {"molecule": "Bartonella henselae NrnC Y151A (enzyme) MTEIRVHQGDLPNLDNYRIDAVAVDTETLGLQPHRDRLCVVQLSSGDGTADVIQIAKGQKSAPNLVRLLSDRDITKIFHFGRFDLAILAHTFGVMPDVVFCTKIASKLTRTYTDRHGLKEICGELLNVNISKQQQSSDWAAETLSRAQIEAAASDVLYLHRLKDIFEERLKREERESVAKACFQFLPMRANLDLLGWSEIDIFAHS", "values": [
      {"measurement": "stoichiometry N", "setting": "SEC-MALS", "result": 8}
    ]},
    {"molecule": "Brucella melitensis nano-RNase C (NrnC), wild type (enzyme, also called NrnCBm) MTIRFHRNDLPNLDNYQVDAVAIDTETLGLNPHRDRLCVVQISPGDGTADVIQIEAGQKKAPNLVKLLKDRSITKIFHFGRFDLAVLAHAFGTMPQPVFCTKIASKLTRTYTDRHGLKEICSELLDVSISKQQQSSDWAAEVLSQAQLEYAASDVLYLHRLKAVLEQRLERDGRTKQAEACFKFLPTRSELDLMGWAESDIFAHS", "values": [
      {"measurement": "stoichiometry N", "setting": "crystal structure", "result": 8}
    ]},
    {"molecule": "AAAAAGG (ssRNA, 5' phosphate)", "note": "[pAAAAAGG]", "values": [
      {"measurement": "Kd", "setting": "NrnCBh (nano-RNase C) [2]", "result": 576, "unit": "nM"}
    ]},
    {"molecule": "AAAGG (ssRNA, 5' phosphate)", "note": "[pAAAGG]", "values": [
      {"measurement": "binding result", "setting": "NrnCBh (nano-RNase C) [3]", "result": "binds"}
    ]}
  ]
}
